Usually koff stands for the rate constant with which the complex falls apart. A low value points to slow dissociation.

B1: R1-002 (antibody, V domains shown)
VH: EVQLLQSGGGLVQPGGSLRLSCAASGFTFSSYAMSWVRQAPGKGLEWVSYISDDGSLKYYADSVKGRFTISRDNSKNTLYLQMNSLRAEDTAVYYCARHPYWYGGQLDLWGQGTLVTVSS
VL: SYELTQPPSVSVSPGQTASITCSGDSLGSYFVHWYQQKPGQSPVLVIYDDSNRPSGIPERFSGSNSGNTATLTISGTQAMDEADYYCSAFTHNSDVFGGGTKLTVL
notes: VL of AB-001 (AB-001_LC); only the variable regions are written; source: HEK293, transient, purified from conditioned medium (protein A, TMAE, HIC)
B2: R1-006 (antibody, V domains shown)
VH: EVQLLESGGGLVQPGGSLRLSCAASGFTFSSYAMSWVRQAPGKGLEWVSYISDDGSLKYYADSVKGRFTISRDNSKNTLYLQMNSLRAEDTAVYYCARHPYWYGGRLDLWGQGTLVTVSS
VL: SYELTQPPSVSVSPGQTASITCSGDSLGSYFVHWYQQKPGQSPVLVIYDDSNRPSGIPERFSGSNSGNTATLTISGTQAMDEADYYCSAFTHNSDVFGGGTKLTVL
notes: as for B1
B3: R1-011 (antibody, V domains shown)
VH: EVQLLESGGGLVQPGGSLRLSCAASGFTFSSYAMSWVRQAPGKGLEWVSYISDDGSLKYYADSVKGRFTISRDNSKNTLYLQMNSLRAEDTAVYYCAKHPYWYGGQLDLWGQGTLVTVSS
VL: SYELTQPPSVSVSPGQTASITCSGDSLGSYFVHWYQQKPGQSPVLVIYDDSNRPSGIPERFSGSNSGNTATLTISGTQAMDEADYYCSAFTHNSNVFGGGTKLTVL
notes: VH of AB-001 (AB-001_HC); only the variable regions are written; source: HEK293, transient, purified from conditioned medium (protein A, TMAE, HIC)
B4: R1-007 (antibody, V domains shown)
VH: EVQLLQSGGGLVKPGGSLRLSCAASGFTFSSYAMSWVRQAPGKGLEWVSYISDDGSLKYYADSVKGRFTISRDNSKNTLYLQMNSLRAEDTAVYYCARHPYWYGGQLDLWGQGTLVTVSS
VL: SYELTQPPSVSVSPGQTASITCSGDSLGSYFVHWYQQKPGQSPVLVIYDDSNRPSGIPERFSGSNSGNTATLTISGTQAMDEADYYCSAFTHNSDVFGGGTKLTVL
notes: as for B1
B5: R2-004 (antibody, V domains shown)
VH: EVQLLQSGGGLVKPGGSLRLSCAASGFTFSSYAMSWVRQAPGKGLEWVSYISDDGSLKYYADSVKGRFTISRDNSKNTLYLQMNSLRAEDTAVYYCARHPYWYGGQLDLWGQGTLVTVSS
VL: SYVLTQPPSVSVAPGKTARITCSGDSLGSYFVHWYQQKPGQSPVLVIHDDSKRPSGIPERFSGSNSGNTATLTISGTQAMDEADYYCSAFTHNSDVFGGGTKLTVL
notes: as the VH of m20 (R2-001_HC); as the VL of m20 (R2-001_LC) with Y49H (Kabat); only the variable regions are written; source: HEK293, transient, purified from conditioned medium (protein A, TMAE, HIC)
B6: R1-003 (antibody, V domains shown)
VH: EVQLLESGGGLVKPGGSLRLSCAASGFTFSSYAMSWVRQAPGKGLEWVSYISDDGSLKYYADSVKGRFTISRDNSKNTLYLQMNSLRAEDTAVYYCARHPYWYGGQLDLWGQGTLVTVSS
VL: SYELTQPPSVSVSPGQTASITCSGDSLGSYFVHWYQQKPGQSPVLVIYDDSNRPSGIPERFSGSNSGNTATLTISGTQAMDEADYYCSAFTHNSDVFGGGTKLTVL
notes: as for B1
B7: R2-005 (antibody, V domains shown)
VH: EVQLLQSGGGLVKPGGSLRLSCAASGFTFSSYAMSWVRQAPGKGLEWVSYISDDGSLKYYADSVKGRFTISRDNSKNTLYLQMNSLRAEDTAVYYCARHPYWYGGQLDLWGQGTLVTVSS
VL: SYVLTQPPSVSVAPGKTARITCSGDSLGSYFVHWYQQKPGQSPVLVIRDDSKRPSGIPERFSGSNSGNTATLTISGTQAMDEADYYCSAFTHNSDVFGGGTKLTVL
notes: as the VH of m20 (R2-001_HC); as the VL of m20 (R2-001_LC) with Y49R (Kabat); only the variable regions are written; source: HEK293, transient, purified from conditioned medium (protein A, TMAE, HIC)
B8: R1-018 (antibody, V domains shown)
VH: EVQLLESGGGLVQPGGSLRLSCAASGFTFSSYAMSWVRQAPGKGLEWVSYISDDGSLKYYADSVKGRFTISRDNSKNTLYLQMNSLRAEDTAVYYCARHPYWYGGRLDLWGQGTLVTVSS
VL: SYELTQPPSVSVSPGQRASITCSGDSLGSYFVHWYQQKPGQSPVLVIYDDSNRPSGIPERFSGSNSGNTATLTISGTQAMDEADYYCSAFTHNSDVFGGGTKLTVL
notes: only the variable regions are written; source: HEK293, transient, purified from conditioned medium (protein A, TMAE, HIC)
B9: R1-005 (antibody, V domains shown)
VH: EVQLLESGGGLVQPGGSLRLSCAASGFTFSSYAMSWVRQAPGKGLEWVSYISNDGSLKYYADSVKGRFTISRDNSKNTLYLQMNSLRAEDTAVYYCARHPYWYGGQLDLWGQGTLVTVSS
VL: SYELTQPPSVSVSPGQTASITCSGDSLGSYFVHWYQQKPGQSPVLVIYDDSNRPSGIPERFSGSNSGNTATLTISGTQAMDEADYYCSAFTHNSDVFGGGTKLTVL
notes: as for B1
B10: R1-010 (antibody, V domains shown)
VH: EVQLLESGGGLVQPGGSLRLSCAASGFTFSSYAMSWVRQAPGKGLEWVSYISDDGSLKYYADSVKGRFTISRDNSKNTLYLQMNSLRAEDTAVYYCAKHPYWYGGQLDLWGQGTLVTVSS
VL: SYELTQPPSVSVSPGQTASITCSGDSLGSYFVHWYQQKPGQSPVLVIYDDSKRPSGIPERFSGSNSGNTATLTISGTQAMDEADYYCSAFTHNSDVFGGGTKLTVL
notes: as for B3

T1 sequence (P01127 82-190): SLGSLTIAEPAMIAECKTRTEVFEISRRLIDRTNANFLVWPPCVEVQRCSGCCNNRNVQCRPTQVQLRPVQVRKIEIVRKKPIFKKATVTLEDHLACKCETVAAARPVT

The assay has as its target T1, human PDGF-BB (platelet derived growth factor B homodimer) (human, UniProt P01127).
T1 construct: Platelet derived growth factor B, human, homodimer, bought from PeproTech; the printed catalogue number may stand for 100-14B; source: bought: PeproTech, Catalog 100-148
Put plainly: SPR; Biacore T200, off-rate screen; antibody captured (~70 to 100 RU) by anti-human IgG amine-coupled to a CM5 chip; human PDGF-BB injected at a single 2.5 nM for 170 s, dissociation 300 s; HBS-EP+ N (10 mM HEPES, 500 mM NaCl, 3 mM EDTA, 0.05% Tween20, pH 7.4); 25 C. As to conditions: both partners purified. (Surface plasmon resonance follows binding to a sensor surface in real time, without labels.)
The molecule B1 returned a koff of 0.00038 s⁻¹.

Molecule B2 gave a koff of 0.000314 s⁻¹.

B3 came in with a koff of 0.00086 s⁻¹.

The molecule B4 yielded a koff of 0.000282 s⁻¹. Compared with the last molecule, the koff is about 3-fold lower.

B5 returned a koff of 0.000439 s⁻¹.

B6 displayed a koff of 0.000443 s⁻¹.

In turn, B7 registered a koff of 0.000348 s⁻¹. The koff values of the last two molecules are within 1.5-fold of each other.

With B8, the off-rate (koff) came out at 0.000419 s⁻¹.

In the case of B9, the koff was found to be 0.000381 s⁻¹.

As for B10, the koff was determined as 0.000372 s⁻¹.

Source of the values: publication PMC7205207, “Modeling and mitigation of high-concentration antibody viscosity through structure-based computer-aided protein design” (PLoS ONE, 2020).
